A short description of data set [1]: Heparin lyase activity assay (change of absorbance at 232 nm), heparin as substrate. Format: biochemical, porcine. On the procedure: The spectrophotometer was adjusted to the optimum temperature of the particular lyase being assayed. […] A measured quantity of lyase was added, bringing the final volume to 400 μl and the cuvette was gently mixed. The microcuvette was then immediately returned to the spectrophotometer and the change of absorbance at 232 nm was measured at 10 seconds intervals over 3 min. […] The specific activity was then calculated by dividing the micromoles of product produced per minute by the milligrams of protein in the cuvette. […] G., and Linhardt, R. J. (1989) Carbohydr. Res. 190, 219-233. Protein concentration was measured by the Bradford assay, Bradford, M. M. (1976) Anal. Biochem. 72, 248-254, based on a bovine serum albumin standard curve. […] The activities of each lyase (I acting on heparin, II acting on both heparin and heparan sulfate, and III acting on heparan sulfate) were then determined at different pH values. The buffer giving optimum activity for each heparin lyase was selected by testing buffers with buffering capacity near the pH optima calculated in the previous experiments. These buffers were: Tris-HCl, sodium phosphate, HEPES, MOPS, TES, and BTP-CHl. […] The heparin lyase assay solutions were made by diluting enzyme in 50 mM sodium phosphate buffer adjusted to the appropriate pH as previously described. Heparin lyase activity was determined in each buffer. Activity was assayed both immediately after addition to each buffer and following incubation for 24 h at 37° C. The salt concentration for optimum activity was investigated. Sodium chloride, potassium chloride, and sodium and potassium acetate were used to differentiate between ionic strength and specific ion affects. […] The temperature was adjusted in a temperature-regulated spectrophotometer and equilibrated for 10 min before the assay was started. Michaelis-Menten constants were determined using the optimized conditions. The final absorbance value for total depolymerization was divided by 20 to find a value that represented 5% reaction completion. The purified lyase preparations were diluted so that 5% of total depolymerization would be reached only at the end of a 3-min assay. The reaction velocities at specific molar concentrations for each lyase and their substrates were used for kinetic analysis using EZ-FIT hyperbolic curve-fitting program of […]. (1988) Anal. Biochem. 174, 437-447). Substrate solutions were prepared from 50 mg/ml heparin and 40 mg/ml for heparan sulfate stock solutions. […] The amount of purified lyase used was sufficient for complete depolymerization of heparin or heparan sulfate substrates within 30 min. The initial rate of depolymerization of each polysaccharide was measured, the reaction was then continued for 24 h, and the final level of polysaccharide depolymerization was assessed by measuring the final absorbance at 232 nm and expressed as percent activity.

Data set [2] is described as follows: Stability toward storage, freeze thawing and lyophilization. Format: physicochemical. Here is the method: […] […] These lyase solutions were then divided into 3 equal aliquots, and one of each was subjected to either freeze thawing, lyophilization, or retained as a control in an ice bath. The activities of heparin lyases I-III were determined in the presence and absence of excipients after: 1) brief storage at 4° C.; 2) freezing at −70° C. and thawing; and 3) −70° C. freezing, lyophilization, and reconstituting with an equal volume of cold water.

The conditions of data set [3]: Rice and Lindhardt (1989), cited from earlier work.

Like-named read-outs stand apart in the source and are kept apart here.

B1: Heparin lyase II: heparin lyase II (heparinase II, no EC number) purified to homogeneity from Flavobacterium heparinum (protein, UniProt C6XZB6 26-772, looked up)
Heparin and heparin-sulfate …: QTKADVVWKDVDGVSMPIPPKTHPRLYLREQQVPDLKNRMNDPKLKKVWADMIKMQEDWKPADIPEVKDFRFYFNQKGLTVRVELMALNYLMTKDPKVGREAITSIIDTLETATFKPAGDISRGIGLFMVTGAIVYDWCYDQLKPEEKTRFVKAFVRLAKMLECGYPPVKDKSIVGHASEWMIMRDLLSVGIAIYDEFPEMYNLAAGRFFKEHLVARNWFYPSHNYHQGMSYLNVRFTNDLFALWILDRMGAGNVFNPGQQFILYDAIYKRRPDGQILAGGDVDYSRKKPKYYTMPALLAGSYYKDEYLNYEFLKDPNVEPHCKLFEFLWRDTQLGSRKPDDLPLSRYSGSPFGWMIARTGWGPESVIAEMKVNEYSFLNHQHQDAGAFQIYYKGPLAIDAGSYTGSSGGYNSPHNKNFFKRTIAHNSLLIYDPKETFSSSGYGGSDHTDFAANDGGQRLPGKGWIAPRDLKEMLAGDFRTGKILAQGFGPDNQTPDYTYLKGDITAAYSAKVKEVKRSFLFLNLKDAKVPAAMIVFDKVVASNPDFKKFWLLHSIEQPEIKGNQITIKRTKNGDSGMLVNTALLPDAANSNITSIGGKGKDFWVFGTNYTNDPKPGTDEALERGEWRVEITPKKAAAEDYYLNVIQIADNTQQKLHEVKRIDGDKVVGVQLADRIVTFSKTSETVDRPFGFSVVGKGTFKFVMTDLLPGTWQVLKDGKILYPALSAKGDDGALYFEGTEGTYRFLR
Take B1: in data set [1] (final GPC-HPLC purification step, acting on heparin), the “Unit/mg (specific activity)” value is on record as 19 Unit/mg. The “average number of sites acted at in the heparin polymer” value in data set [1] (final level of depolymerization, 24 h) turned out to be 14 sites. Besides, the “initial activity in six buffers (Tris-HCl, sodium phosphate, HEPES, MOPS, TES, BTP-HCl)” value in data set [1] (heparin, 50 mM buffer at optimum pH) is on record as “remarkably similar in all six buffers”. In data set [1] (heparin, 50 mM sodium phosphate at optimum pH, 15-55° C.), the “temperature for maximum activity” value is 40 °C. In data set [1] (heparin, I: 30° C., pH 7.15, 100 mM sodium chloride, II: 35° C., pH 7.3, value ± standard error, read-out: Km(app)), the Km turned out to be 57.7 ± 6.56 µM. For the same molecule, the “optimum temperature (summary)” value in data set [1] (heparin, activity greater at higher temperatures but stability reduced) stood at 35 °C. Moreover, in data set [1] (heparin, optimized conditions, value ± standard error), the Vmax was found to be 16.7 ± 0.555 μmol/min mg protein. In data set [1] (on heparin), the “pH optimum for activity” value is 7.3. The specific activity in data set [1] (purified lyase, toward heparin) turned out to be 19 units/mg. Also, in data set [1] (with heparin), the “Km (Michelis-Menton constant, summary)” value was 0,129 mg/ml and the “V(max) (summary)” value worked out at 15.04. The Km in data set [1] (with heparin, read-out: Km (Michelis-Menton constant, summary)) came to 9.23 µM. Further, the activity retained entry in data set [2] (under all storage conditions) was “greater than 75%”.

B2: Heparin lyase III: heparin lyase III (heparitinase EC 4.2.2.8) purified to homogeneity from Flavobacterium heparinum (protein, UniProt Q59289 25-659, looked up)
Heparin-sulfate lyase: QSSSITRKDFDHINLEYSGLEKVNKAVAAGNYDDAAKALLAYYREKSKAREPDFSNAEKPADIRQPIDKVTREMADKALVHQFQPHKGYGYFDYGKDINWQMWPVKDNEVRWQLHRVKWWQAMALVYHATGDEKYAREWVYQYSDWARKNPLGLSQDNDKFVWRPLEVSDRVQSLPPTFSLFVNSPAFTPAFLMEFLNSYHQQADYLSTHYAEQGNHRLFEAQRNLFAGVSFPEFKDSPRWRQTGISVLNTEIKKQVYADGMQFELSPIYHVAAIDIFLKAYGSAKRVNLEKEFPQSYVQTVENMIMALISISLPDYNTPMFGDSWITDKNFRMAQFASWARVFPANQAIKYFATDGKQGKAPNFLSKALSNAGFYTFRSGWDKNATVMVLKASPPGEFHAQPDNGTFELFIKGRNFTPDAGVFVYSGDEAIMKLRNWYRQTRIHSTLTLDNQNMVITKARQNKWETGNNLDVLTYTNPSYPNLDHQRSVLFINKKYFLVIDRAIGEATGNLGVHWQLKEDSNPVFDKTKNRVYTTYRDGNNLMIQSLNADRTSLNEEEGKVSYVYNKELKRPAFVFEKPKKNAGTQNFVSIVYPYDGQKAPEISIRENKGNDFEKGKLNLTLTINGKQQLVLVP
For B2, the activity retained result in data set [2] (absence of excipient, stored at 4° C.) was “retains most of its activity”. Moreover, in data set [2] (addition of 5% lactose), the retention of activity result is “destabilizes”. For the same molecule, in data set [2] (on freeze-thawing or freeze-drying), the activity lost is reported as 70-80%. For the same molecule, the “increase of recovered activity” value in data set [2] (presence of BSA) was 20-25%. For the same molecule, the “Vmax (reported)” value in data set [3] is 0.00357 µmol/min. Moreover, the Km in data set [3] (read-out: apparent Km (reported)) is 5.7 µM.

For orientation: Km means the substrate concentration at which the rate is half of its maximum.

Values taken from patent publication USRE41461E1, “Purification, composition and specificity of Heparinase I, II, and III from Flavobacterium heparinum” (Massachusetts Institute of Technology, priority 1992, dated 2010).
